Data reported in US20110002963A1 (IMMATICS BIOTECHNOLOGIES, published 2011).

target: T1, MHC molecule coded by the HLA-A*0201 allele (recombinant HLA-A*0201 heavy chain refolded with beta-2 … (human)); assay: ELISA-based MHC refolding assay

| binding result | Binder |
| --- | --- |
| binds | KVFAGIPTV (also called IMA-PTP-005) [PTP-005] |
| binds | AIIDGVESV (also called IMA-PTP-003) [PTP-003] |
| binds | ALWAWPSEL (also called IMA-BCA-002) [BCA-002] |
| binds | GLWHHQTEV (also called IMA-NRCAM-001) [NRCAM-001] |
| binds | SLWAGVVVL (also called IMA-CHI-001) [CHI-001] |
| binds | LTFGDVVAV (also called IMA-FABP7-001) [FABP7-001] |
| binds | NLDTLMTYV (also called IMA-NLGN4X-001) [NLGN4X-001] |
| binds | KIQEILTQV (also called IMA-IGF2BP3-001) [IGF2BP3-001] |
| binds | AMTQLLAGV (also called IMA-TNC-001) [TNC-001] |

target: T1, MHC molecule coded by the HLA-A*0201 …; assay: tetramer production / HLA-A*0201 refolding with peptide

| binding result | Binder |
| --- | --- |
| no binding | TFSYVDPVITSISPKYG (also called IMA-MET-005; full-length MET-005) [MET-005] |

target: T1, MHC molecule coded by the HLA-A*0201 …; assay: ELISA-based MHC refolding assay, recombinant HLA-A*0201 heavy chain + b2m + graded peptide

| Kd | Binder |
| --- | --- |
| 0.14 nM | YVDPVITSI (also called MET-005 derived MET-001) [MET-001] |
| 2.05 nM | TMLARLASA (also called IMA-CSP-001) [CSP-001] |
